1 substance from paper PMC3474823 can be followed below.

This assay deals with HA-LIMK2 (pcDNA3-(HA)2-LIMK2) (UniProt P53671).
Sequence of UniProt P53671 (P53671 whole entry): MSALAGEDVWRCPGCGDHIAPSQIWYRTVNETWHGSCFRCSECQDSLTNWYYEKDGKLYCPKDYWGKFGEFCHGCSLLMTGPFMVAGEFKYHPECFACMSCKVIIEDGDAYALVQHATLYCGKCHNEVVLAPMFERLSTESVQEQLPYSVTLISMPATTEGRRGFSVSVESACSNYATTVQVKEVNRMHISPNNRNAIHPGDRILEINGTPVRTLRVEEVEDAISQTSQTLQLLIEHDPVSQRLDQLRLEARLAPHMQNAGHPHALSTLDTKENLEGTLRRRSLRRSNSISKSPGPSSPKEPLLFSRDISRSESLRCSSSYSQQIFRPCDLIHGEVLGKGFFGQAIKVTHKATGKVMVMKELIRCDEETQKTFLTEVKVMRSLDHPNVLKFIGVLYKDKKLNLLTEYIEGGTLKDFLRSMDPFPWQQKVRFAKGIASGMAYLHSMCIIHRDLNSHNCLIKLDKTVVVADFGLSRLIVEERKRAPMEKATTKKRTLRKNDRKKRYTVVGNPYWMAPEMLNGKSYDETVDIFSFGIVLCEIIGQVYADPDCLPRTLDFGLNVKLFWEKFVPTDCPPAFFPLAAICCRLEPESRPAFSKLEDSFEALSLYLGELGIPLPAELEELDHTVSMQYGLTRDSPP

For the substance “flag-SecPH (p3XFlag-SecPH) (domain or fragment)”, the kinase activity of anti-HA-LIMK2 immunoprecipitate on GST-cofilin (32P, P-cofilin), cells cotransfected with SecPH against the control Galectin-3 stood at 20%.
